Laboratory results published in patent US8754034B2, “Structure-based design of peptide inhibitors of amyloid fibrillation” (The Regents of the University of California, priority 2009, dated 2014).
“Also recorded” adds a separate entry of the source. Where no end group is shown, it is not given here. [ ]: non-standard residue; d: D form.

What was measured:
tau K12 [1] = biological target: T1, tau K12 (Homo sapiens, UniProt P10636); test: Fibril formation inhibition assay of tau K12 monitored by ThS fluorescence; type: biochemical; conditions: for effect on tau K12 fibrillation (ThS fluorescence): peptide at equimolar ratio with K12; for ratio (concentration) dependence of the delay of K12 fibrillation (lag time): various molar ratios of peptide to K12 (FIGS. 5, 6); for effect on K12 fibrillation, comparison between peptides: ThS fluorescence, ratio not given (FIG. 4); for average lag time of K12 fibrillation: peptide at equimolar ratio with K12 (FIG. 10b)
T1 construct: starting Met residue (added initiator methionine before Q244) (N); made in house; host or cells: E. coli BL21 (DE3), vector pNG2 (pET-3b derivative)
Protocol: 150 μL reactions containing 50 or 100 μM tau K12, as determined by the micro BCA Protein Assay Kit (Pierce), were incubated in 250 mM sodium phosphate buffer pH 7.4 with 1 mM DTT, 3 μM heparin, and 10 μM ThS (Friedhoff et al., 1998; Perez et al., 1996; Schweers et al., 1995). Peptides were dissolved in 250 mM sodium phosphate buffer pH 7.4 and added at various molar ratios to the reaction mixtures. The fluorescence signal was measured every 15 minutes with excitation and emission wavelengths of 440 and 510 nm, respectively, at 37° C. with continuous shaking at 900 rpm with a diameter of 1 mm in a Varioskan plate reader (Thermo Fisher Scientific, Inc.). Reactions were split into a minimum of 3 replicates in Nunc optically clear bottom, 96-well black plates, sealed with Corning pressure seal tape and monitored for various times. Each experiment was repeated a minimum of four times yielding the same results.

amyloid β protein = amyloid β protein (Homo sapiens, UniProt P05067); test: Amyloid beta fibrillation monitored by thioflavin T fluorescence; type: biochemical; conditions: thioflavin T fluorescence (FIG. 4b)
From the text: In FIG. 4(b), fibril formation of amyloid beta (abeta) protein is not delayed by addition of D-TLKIVW. Tau K12 fibrillation is monitored by ThS fluorescence and amyloid beta fibrillation is monitored by thioflavin T fluorescence.

tau K12 [2] = biological target: T1, tau K12; test: Electron microscopy of tau K12 fibril formation in the presence of peptides; type: biochemical; conditions: K12 incubated with peptide, with or without ThS
Protocol: 5 μL of sample were applied to glow discharged 400 mesh carbon-coated formar films on copper grids (Ted Pella, Inc.) for three minutes. Grids were rinsed twice with distilled water and stained with 1% uranyl acetate for 90 seconds. Grids were examined in a Hitachi H-7000 transmission electron microscope at 75 kEv.

tau K12 construct = tau K12 construct (UniProt P10636-8 244-274; P10636-8 306-394, limits assumed); test: cell-based or functional assay
Chain of tau K12 construct (P10636 other isoform, or with tags, fused parts or gaps limits assumed): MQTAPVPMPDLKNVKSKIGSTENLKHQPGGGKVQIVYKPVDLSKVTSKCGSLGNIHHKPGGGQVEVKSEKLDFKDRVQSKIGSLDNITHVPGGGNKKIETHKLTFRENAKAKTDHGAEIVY

T1 sequence (P10636 186-305 isoform P10636-2): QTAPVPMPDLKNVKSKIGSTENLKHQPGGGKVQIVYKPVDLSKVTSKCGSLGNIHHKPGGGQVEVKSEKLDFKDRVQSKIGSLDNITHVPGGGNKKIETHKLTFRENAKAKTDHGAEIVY
Chain of amyloid β protein (P05067 672-713 limits assumed): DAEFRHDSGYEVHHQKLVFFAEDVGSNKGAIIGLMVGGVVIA

D-YVIIER ([dY][dV][dI][dI][dE][dR]) [D-amino acid peptide designed to pack against the bottom of the VQIVYK fibril structure]
effect on tau K12 fibrillation (ThS fluorescence) (tau K12 [1]): some delay | ratio (concentration) dependence of the delay of K12 fibrillation (lag time) (tau K12 [1]): delayed K12 fibrillation in a concentration dependent manner; also recorded: clear ratio dependence

L-VQIVYK (SEQ ID NO: 1) [steric zipper segment of tau, used as control peptide, reference compound]
effect on tau K12 fibrillation (ThS fluorescence) (tau K12 [1]): no significant effect on fibrillation | effect on tau K12 fibrillation (ThS fluorescence) (tau K12 [1]; listed as VQIVYK): no effect at equimolar concentrations or in excess

D-TLKIVW ([dT][dL][dK][dI][dV][dW]) [D-amino acid peptide designed to pack against the top of the VQIVYK fibril-like structure of tau]
effect on fibril formation of amyloid beta protein (amyloid β protein): no effect on fibrillation; also recorded: not delayed | molar ratio of peptide relative to tau K12 at which a marginal effect on delay of fibrillation was observed (tau K12 [1]): 50 fold less peptide relative to tau K12 concentration | time without ThS signal (tau K12 [1]; 50 μM K12, peptide at 2-fold and 5-fold excess, some of the samples): > 300 h | time without fibril formation (tau K12 [1]; 2-fold or 5-fold excess peptide, some experiment replicates): more than 2 weeks | effect on K12 fibrillation, comparison between peptides (tau K12 [1]): the most effective peptide; also recorded: delays fibrillation relative to K12 alone | effect on tau K12 fibrillation (ThS fluorescence) (tau K12 [1]): inhibition for several days | average lag time of K12 fibrillation (tau K12 [1]): over 140 hours | effect on tau K12 fibrillation (ThS fluorescence) (tau K12 [1]; listed as D-amino acid peptide TLKIVW): prevents the formation of K12fibrils | ratio (concentration) dependence of the delay of K12 fibrillation (lag time) (tau K12 [1]): delayed longer by higher concentrations of the D-peptide | fibril formation of K12 seen by electron microscopy (tau K12 [2]): there were no fibrils; also recorded: prevents fibril formation; also recorded: fibrils do not form

D-TWKLVL ([dT][dW][dK][dL][dV][dL]) [D-amino acid peptide designed to pack against the top of the VQIVYK fibril structure]
molar ratio of peptide relative to tau K12 at which a marginal effect on delay of fibrillation was observed (tau K12 [1]): 10 fold less peptide relative to tau K12 concentration | duration of effective inhibition of K12 fibrillation (tau K12 [1]; 5-fold excess peptide): about 1 week | peptide concentration relative to K12 at which an inhibitory effect is still seen (tau K12 [1]; ThS fluorescence (FIGS. 5, 6)): 10 % the molar concentration of K12 | delay of K12 fibrillation (tau K12 [1]; peptide at equimolar ratio with K12 (FIG. 3a)): more than 30 hours | ratio (concentration) dependence of the delay of K12 fibrillation (lag time) (tau K12 [1]): still were inhibiting fibrillation of K12 | fibril formation of K12 seen by electron microscopy (tau K12 [2]): Fibrils do not form | fibril formation of K12 seen by electron microscopy (tau K12 [2]; listed as DTWKLVL): there were no fibrils

D-DYYFEK ([dD][dY][dY][dF][dE][dK])
effect on tau K12 fibrillation (ThS fluorescence) (tau K12 [1]): all peptides except D-DYYFEK systematically delayed fibrillation

D-TIKWVL ([dT][dI][dK][dW][dV][dL]) [scrambled peptide of D-TLKIVW, order of residues scrambled in one face]
effect on K12 fibrillation, comparison between peptides (tau K12 [1]): does not delay the onset of K12 fibrillation | effect on tau K12 fibrillation (ThS fluorescence) (tau K12 [1]): some inhibitory effect; also recorded: not nearly as effective as D-TLKIVW

D-DYYFEF ([dD][dY][dY][dF][dE][dF]) [D-amino acid peptide designed to pack against the bottom of the VQIVYK atomic structure]
effect on K12 fibrillation, comparison between peptides (tau K12 [1]): improved capping over D-DYYFEK | effect on tau K12 fibrillation (ThS fluorescence) (tau K12 [1]): no inhibition | ratio (concentration) dependence of the delay of K12 fibrillation (lag time) (tau K12 [1]): delayed K12 fibrillation in a concentration dependent manner; also recorded: some effect at delaying fibrillation

D-TIWKVL ([dT][dI][dW][dK][dV][dL]) [scrambled peptide of D-TLKIVW, reference compound]
effect on K12 fibrillation, comparison between peptides (tau K12 [1]): does not delay the onset of K12 fibrillation

D-GVIGIA (G[dV][dI]G[dI][dA]) [D-amino acid control peptide, a stereoisomer of an L-amino acid peptide known to aggregate on its own, reference compound]
effect on tau K12 fibrillation (ThS fluorescence) (tau K12 [1]): no effect on fibrillation; also recorded: without any effect on fibrillation

D-LKTWIV ([dL][dK][dT][dW][dI][dV]) [scrambled peptide of D-TLKIVW, reference compound]
effect on K12 fibrillation, comparison between peptides (tau K12 [1]): does not delay the onset of K12 fibrillation

L-TLKIVW (SEQ ID NO: 3) [L-amino acid enantiomer of D-TLKIVW]
effect on K12 fibrillation, comparison between peptides (tau K12 [1]): able to inhibit fibril formation, but not nearly as long as D-TLKIVW | effect on tau K12 fibrillation (ThS fluorescence) (tau K12 [1]): able to inhibit fibril formation, but not nearly as long as D-TLKIVW; also recorded: not nearly as effective as D-TLKIVW | average lag time of K12 fibrillation (tau K12 [1]): about 40 hours

[dT][dL][dK][dI][dV][dW] (designed binder) [D-TLKIVW]
average lag time of K12 fibrillation (ThS fluorescence), equimolar ratio (tau K12 construct): > 140 h | molar amount of peptide relative to tau K12 construct to delay fibrillation (tau K12 construct): 50 fold less peptide than K12 | time without K12 fibrils at 2-fold or 5-fold excess peptide (tau K12 construct): > 2 weeks

[dT][dW][dK][dL][dV][dL] (designed binder) [D-TWKLVL]
delay of K12 fibrillation at equimolar ratio (ThS fluorescence) (tau K12 construct): > 30 h | duration of inhibition of K12 fibrillation at 5-fold excess peptide (tau K12 construct): ~1 week | molar amount of peptide relative to tau K12 construct to delay fibrillation (tau K12 construct): 10 fold less peptide than K12

[dT][dI][dK][dW][dV][dL] [D-TIKWVL]
average lag time of K12 fibrillation (ThS fluorescence), equimolar ratio (tau K12 construct): 54 h
